{"source": "paper PMC8599947", "key": {"CST g1.1 [1]": {"biological_target": "T1, CST g1.1 (human, UniProt Q2NKJ3;Q9H668;Q86WV5 1-1217;1-368;1-123, E951K;CTC1:Y949A)", "T1 sequence (Q2NKJ3 whole entry E951K, chain 1 of 3)": "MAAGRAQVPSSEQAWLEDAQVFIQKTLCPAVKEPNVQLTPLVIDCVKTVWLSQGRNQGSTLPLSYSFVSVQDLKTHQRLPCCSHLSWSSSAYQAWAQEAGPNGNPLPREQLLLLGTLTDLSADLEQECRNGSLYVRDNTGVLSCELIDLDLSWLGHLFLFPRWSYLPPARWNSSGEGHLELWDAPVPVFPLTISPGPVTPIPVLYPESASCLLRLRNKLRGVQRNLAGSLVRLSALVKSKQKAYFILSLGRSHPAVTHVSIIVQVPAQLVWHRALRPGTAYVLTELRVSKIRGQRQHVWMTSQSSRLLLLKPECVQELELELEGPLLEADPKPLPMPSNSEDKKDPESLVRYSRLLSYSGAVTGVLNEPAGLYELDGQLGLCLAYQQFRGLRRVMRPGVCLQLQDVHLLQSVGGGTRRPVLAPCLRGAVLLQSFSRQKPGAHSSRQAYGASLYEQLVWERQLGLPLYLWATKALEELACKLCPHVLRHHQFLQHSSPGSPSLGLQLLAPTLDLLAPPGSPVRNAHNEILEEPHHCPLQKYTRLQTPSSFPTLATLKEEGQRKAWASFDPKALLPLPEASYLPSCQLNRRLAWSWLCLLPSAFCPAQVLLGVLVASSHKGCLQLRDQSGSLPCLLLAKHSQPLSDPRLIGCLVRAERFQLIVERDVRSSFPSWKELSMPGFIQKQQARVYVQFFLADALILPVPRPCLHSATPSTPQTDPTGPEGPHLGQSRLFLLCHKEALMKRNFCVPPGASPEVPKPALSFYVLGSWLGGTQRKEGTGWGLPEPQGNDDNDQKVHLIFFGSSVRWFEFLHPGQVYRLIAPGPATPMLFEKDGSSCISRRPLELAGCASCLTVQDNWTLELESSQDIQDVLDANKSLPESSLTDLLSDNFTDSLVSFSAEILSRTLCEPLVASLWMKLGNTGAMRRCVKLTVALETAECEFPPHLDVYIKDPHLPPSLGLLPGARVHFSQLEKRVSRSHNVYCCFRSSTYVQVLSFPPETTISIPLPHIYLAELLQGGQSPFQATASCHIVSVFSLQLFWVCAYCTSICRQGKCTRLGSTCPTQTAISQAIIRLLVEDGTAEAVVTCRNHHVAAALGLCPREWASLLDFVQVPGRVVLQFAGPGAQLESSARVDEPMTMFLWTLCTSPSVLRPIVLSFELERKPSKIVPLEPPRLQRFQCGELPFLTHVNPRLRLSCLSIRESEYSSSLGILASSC", "T1 sequence (Q9H668 whole entry, stated change not applied, chain 2 of 3)": "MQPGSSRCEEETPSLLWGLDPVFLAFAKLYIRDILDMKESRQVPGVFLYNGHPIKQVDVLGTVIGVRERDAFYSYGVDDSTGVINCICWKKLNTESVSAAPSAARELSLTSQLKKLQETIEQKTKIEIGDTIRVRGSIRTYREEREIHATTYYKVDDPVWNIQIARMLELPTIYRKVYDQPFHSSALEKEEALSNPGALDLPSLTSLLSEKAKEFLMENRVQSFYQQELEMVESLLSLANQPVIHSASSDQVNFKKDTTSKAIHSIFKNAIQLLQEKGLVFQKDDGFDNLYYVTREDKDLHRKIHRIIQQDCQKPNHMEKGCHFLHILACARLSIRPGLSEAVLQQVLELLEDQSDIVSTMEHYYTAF", "T1 sequence (Q86WV5 whole entry, stated change not applied, chain 3 of 3)": "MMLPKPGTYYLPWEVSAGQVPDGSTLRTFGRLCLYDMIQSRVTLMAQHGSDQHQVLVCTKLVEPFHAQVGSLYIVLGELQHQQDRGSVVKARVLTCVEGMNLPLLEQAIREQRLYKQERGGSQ", "assay": "EMSA"}, "CST g2.1 [2]": {"biological_target": "T2, CST g2.1 (human, UniProt Q2NKJ3;Q9H668;Q86WV5 1-1217;1-368;1-123, N981D;Y983A;CTC1:R978E)", "T2 sequence (Q2NKJ3 whole entry N981D/Y983A, chain 1 of 3)": "as the sequence (Q2NKJ3 whole entry E951K, chain 1 of 3) above, with K951E, N981D, Y983A counted along it", "T2 sequence (Q9H668 whole entry, stated change not applied, chain 2 of 3)": "as the sequence (Q9H668 whole entry, stated change not applied, chain 2 of 3) above", "T2 sequence (Q86WV5 whole entry, stated change not applied, chain 3 of 3)": "as the sequence (Q86WV5 whole entry, stated change not applied, chain 3 of 3) above", "assay": "EMSA"}, "CST g3.1 [3]": {"biological_target": "T3, CST g3.1 (human, UniProt Q2NKJ3;Q9H668;Q86WV5 1-1217;1-368;1-123, K1167E;CTC1:K1164E)", "T3 sequence (Q2NKJ3 whole entry K1167E, chain 1 of 3)": "as the sequence (Q2NKJ3 whole entry E951K, chain 1 of 3) above, with K951E, K1167E counted along it", "T3 sequence (Q9H668 whole entry, stated change not applied, chain 2 of 3)": "as the sequence (Q9H668 whole entry, stated change not applied, chain 2 of 3) above", "T3 sequence (Q86WV5 whole entry, stated change not applied, chain 3 of 3)": "as the sequence (Q86WV5 whole entry, stated change not applied, chain 3 of 3) above", "assay": "EMSA"}, "CST g2.1 [4]": {"biological_target": "T2, CST g2.1", "assay": "fluorescence anisotropy"}, "CST g1.1 [5]": {"biological_target": "T1, CST g1.1", "assay": "fluorescence anisotropy"}, "CST g3.1 [6]": {"biological_target": "T3, CST g3.1", "assay": "fluorescence anisotropy"}, "[7]": {"biological_target": "CST g4.1 (negative control mutant) (human, UniProt Q2NKJ3;Q9H668;Q86WV5 1-1217;1-368;1-123, R744E;CTC1:K743E)", "sequence (Q2NKJ3 whole entry R744E, chain 1 of 3)": "as the sequence (Q2NKJ3 whole entry E951K, chain 1 of 3) above, with R744E, K951E counted along it", "sequence (Q9H668 whole entry, stated change not applied, chain 2 of 3)": "as the sequence (Q9H668 whole entry, stated change not applied, chain 2 of 3) above", "sequence (Q86WV5 whole entry, stated change not applied, chain 3 of 3)": "as the sequence (Q86WV5 whole entry, stated change not applied, chain 3 of 3) above", "assay": "fluorescence anisotropy"}}, "data": [{"binder": "TTAGGGTTAGGGTTAGGG (ssDNA)", "note": "[3xTEL (EMSA)]", "values": [{"measurement": "Kd", "setting": "CST g1.1 [1]", "result": "133 ± 73", "unit": "nM"}, {"measurement": "Kd", "setting": "CST g2.1 [2]", "result": "210 ± 106", "unit": "nM"}, {"measurement": "Kd", "setting": "CST g3.1 [3]", "result": "97 ± 27", "unit": "nM"}]}, {"binder": "TTAGGGTTAGGGTTAGGG (ssDNA)", "note": "[3xTEL (FP)]", "values": [{"measurement": "Kd", "setting": "CST g2.1 [4]", "result": "~800", "unit": "nM"}, {"measurement": "Kd", "setting": "CST g1.1 [5]", "result": "~520", "unit": "nM"}, {"measurement": "Kd", "setting": "CST g3.1 [6]", "result": "~420", "unit": "nM"}, {"measurement": "Kd", "setting": "[7]", "result": "2 ± 0.16", "unit": "nM"}]}]}
